Measured values taken from patent publication US5525479A, “Fluorescence assay of Ras farnesyl protein transferase” (Merck & Co., Inc., priority 1994, dated 1996).
Ends that are not written are not given here. Peptide text beside a SMILES is read from it. * marks the point of attachment. Dansyl = CN(C)c1cccc2c(S(=O)(=O)*)cccc12

Target: recombinant human farnesyl:protein transferase (hFPTase) (Homo sapiens, UniProt P49354+P49356)
Test: continuous fluorescence assay of farnesyl:protein transferase activity with dansylated acceptor peptide
Assay type: biochemical
Settings: for substrate of FPTase (fluorescence enhancement): other dansylated peptides synthesized to optimize the sensitivity of the assay
Procedure: FIG. 1A is a fluorescence progress curve, A, of the reaction catalyzed by recombinant human farnesyl:protein transferase (hFPTase; 0.5 nM) using Ds-GlyCysValLeySer (SEQ.ID.NO.:1) (1.0 μM) as substrate in the presence of a saturating concentration of farnesyl diphosphate ([…]) in assay buffer (50 mM Tris-HCl, pH 7.5, 5 mM DTT, 5 mM MgCl2, 10 μM ZnCl2, and 0.2% octyl-β-D-glucopyranoside) at 30° C. Fluorescence data in the integration mode were obtained on a SPEX Fluorolog Model F112X1 spectrofluorimeter with λex =340 nm (slit width=4 nm) and λem =505 nm (slit width=8 nm) using 4 mm square microcells. Concentrations of stock solutions of Ds-GlyCysValLeuSer (SEQ.ID.NO.: 1 ) (in 20 mM Tris-CHl, pH 7.5, 10 mM EDTA) were calculated from the extinction coefficient of the dansyl moiety at 340 nm(ε=4250 M^-1 cm^-1).
Double reciprocal plot of initial velocity versus Ds-GlyCysValLeuSer (SEQ.ID.NO.:1) concentration in the presence of (.cndot.)0, and 50 nM CysIlePheMet (SEQ.ID.NO.:2) at 30° C. Reactions (400 μL) contained hFPTase(1 nM), FPP (10 μM) and varying concentrations of Ds-GlyCysValLeuSer (SEQ.ID.NO.:1) with or without 50 nM peptide CysIlePheMet (SEQ.ID.NO.:2) in assay buffer (see FIG. 1).
The continuous FPTase activity assay is based on the enhancement of fluorescence and the accompanying shift to lower wavelength emission maximum of certain fluorophores, like dansyl, upon change from a polar to non-polar molecular environment (Lakowicz, Principles of Fluorescence Spectroscopy, Plenum Press, New York, (1983)). The present invention utilizes an acceptor peptide substrate with an environmentally sensitive fluorescence probe positioned proximally to the reaction center. Substrate pentapeptide N-dansyl-GlyCysValLeuSer(Ds Gly CysValLeuSer) (SEQ.ID.NO.1) and expected product N-dansyl-Gly(S-farnesyl-Cys)ValLeuSer(Ds-Gly[f-Cys]LeuSer were synthesized by standard methods.
(Pompliano, et al., Biochemistry, 31, 3800-3807 (1992)).

Row | substrate of FPTase (fluorescence enhancement) | Compound | further results
1 | substrates | Ds-GlyCysCysValLeuSer | 
2 | substrates | Ds-CysValLeuSer (Dansyl-CVLS) [dansylated peptide] | 
3 |  | CC(C)=CCC/C(C)=C/CC/C(C)=C/CO[P@@](=O)(O)OP(=O)(O)O (stereo in doubt) [FPP, farnesyl diphosphate, reference compound] | Km (in the presence of Ds-GlyCysValLeuSer as acceptor substrate, read-out: KM (FPP)): 0.03 µM
4 | substrates | Ds-LysCysValLeuSer (Dansyl-KCVLS) [dansylated peptide] | 
5 |  | CC(C)C[C@H](NC(=O)[C@@H](NC(=O)[C@H](CS)NC(=O)CNS(=O)(=O)c1cccc2c(N(C)C)cccc12)C(C)C)C(=O)N[C@@H](CO)C(=O)O [Ds-GlyCysValLeuSer, N-dansyl-L-glycinyl-L-cysteinyl-L-valinyl-L-leucinyl-L-serine] (Dansyl-GCVLS-OH) | kcat (Ds-GlyCysValLeuSer as acceptor substrate, Michaelis-Menten kinetics, assay buffer pH 7.5, 30° C.): 0.5 S^-1
6 |  | CysIlePheMet (CIFM) [reference compound] | Ki (competitive inhibitor of Ds-GlyCysValLeuSer binding, hFPTase 1 nM, FPP 10 μM, 30° C.): 9 nM
7 | substrates | Ds-CysValIleMet (Dansyl-CVIM) [dansylated peptide] | 
